T1: ECF35_3582
T1 chain: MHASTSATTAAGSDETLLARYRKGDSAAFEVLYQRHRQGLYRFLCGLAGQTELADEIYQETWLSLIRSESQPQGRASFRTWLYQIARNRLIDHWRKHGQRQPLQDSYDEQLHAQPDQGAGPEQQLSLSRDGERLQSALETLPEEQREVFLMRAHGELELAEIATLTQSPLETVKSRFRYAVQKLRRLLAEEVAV

T2: ECF34_1384
T2 chain: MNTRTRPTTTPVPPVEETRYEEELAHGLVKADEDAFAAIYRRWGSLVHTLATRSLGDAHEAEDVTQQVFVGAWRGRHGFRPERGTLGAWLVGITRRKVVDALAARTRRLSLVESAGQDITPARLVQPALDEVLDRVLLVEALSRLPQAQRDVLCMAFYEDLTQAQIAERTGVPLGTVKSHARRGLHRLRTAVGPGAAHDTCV

T3: ECF27_4265
T3 chain: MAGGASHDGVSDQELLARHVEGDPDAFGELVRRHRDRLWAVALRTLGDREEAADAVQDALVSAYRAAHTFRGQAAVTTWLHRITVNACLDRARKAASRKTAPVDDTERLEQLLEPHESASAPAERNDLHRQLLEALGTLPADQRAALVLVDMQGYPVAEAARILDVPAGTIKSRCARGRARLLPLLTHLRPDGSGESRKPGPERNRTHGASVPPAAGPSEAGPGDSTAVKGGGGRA

T4: ECF38_1322
T4 chain: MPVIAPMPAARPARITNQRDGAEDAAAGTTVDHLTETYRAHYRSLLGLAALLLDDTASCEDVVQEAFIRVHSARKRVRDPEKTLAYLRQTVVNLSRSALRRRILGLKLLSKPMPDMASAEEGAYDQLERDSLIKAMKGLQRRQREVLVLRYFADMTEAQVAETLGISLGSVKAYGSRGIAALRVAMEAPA

T5: ECF04_1609
T5 chain: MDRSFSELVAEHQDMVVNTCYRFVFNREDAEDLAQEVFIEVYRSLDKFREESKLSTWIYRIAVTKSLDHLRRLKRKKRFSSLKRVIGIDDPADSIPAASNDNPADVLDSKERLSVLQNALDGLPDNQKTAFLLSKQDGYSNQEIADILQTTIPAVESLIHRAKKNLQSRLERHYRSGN

T6: ECF37_2513
T6 chain: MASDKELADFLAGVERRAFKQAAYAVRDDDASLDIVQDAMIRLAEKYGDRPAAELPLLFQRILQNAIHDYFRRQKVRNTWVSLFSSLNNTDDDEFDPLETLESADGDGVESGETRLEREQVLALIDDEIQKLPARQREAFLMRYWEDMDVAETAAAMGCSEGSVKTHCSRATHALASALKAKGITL

T7: ECF33_375
T7 chain: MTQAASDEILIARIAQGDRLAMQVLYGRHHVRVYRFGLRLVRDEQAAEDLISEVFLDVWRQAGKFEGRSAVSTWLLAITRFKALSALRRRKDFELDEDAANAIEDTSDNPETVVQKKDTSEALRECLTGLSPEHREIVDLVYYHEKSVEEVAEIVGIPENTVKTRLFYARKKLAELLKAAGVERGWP

T8: ECF16_973
T8 chain: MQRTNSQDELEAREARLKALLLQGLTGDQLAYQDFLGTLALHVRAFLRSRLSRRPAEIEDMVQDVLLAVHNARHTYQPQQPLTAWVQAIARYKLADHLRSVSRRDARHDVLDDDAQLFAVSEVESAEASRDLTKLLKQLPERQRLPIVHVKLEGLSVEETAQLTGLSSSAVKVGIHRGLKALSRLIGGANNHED

T9: ECF22_1147
T9 chain: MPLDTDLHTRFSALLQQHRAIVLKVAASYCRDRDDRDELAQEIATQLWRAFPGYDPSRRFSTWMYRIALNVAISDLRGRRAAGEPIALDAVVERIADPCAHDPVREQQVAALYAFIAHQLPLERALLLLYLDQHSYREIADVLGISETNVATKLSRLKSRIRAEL

T10: ECF03_1244
T10 chain: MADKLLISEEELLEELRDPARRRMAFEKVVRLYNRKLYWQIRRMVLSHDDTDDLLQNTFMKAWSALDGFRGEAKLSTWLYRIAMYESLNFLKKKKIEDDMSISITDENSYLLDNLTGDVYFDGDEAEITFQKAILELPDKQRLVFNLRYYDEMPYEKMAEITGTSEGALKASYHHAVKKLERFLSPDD

T11: ECF11_3726
T11 chain: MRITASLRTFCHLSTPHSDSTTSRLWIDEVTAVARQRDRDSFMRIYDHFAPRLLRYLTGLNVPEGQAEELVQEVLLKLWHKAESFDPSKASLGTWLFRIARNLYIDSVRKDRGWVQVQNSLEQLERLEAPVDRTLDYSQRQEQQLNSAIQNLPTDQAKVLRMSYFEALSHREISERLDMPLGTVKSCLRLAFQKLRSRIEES

T12: ECF14_3200
T12 chain: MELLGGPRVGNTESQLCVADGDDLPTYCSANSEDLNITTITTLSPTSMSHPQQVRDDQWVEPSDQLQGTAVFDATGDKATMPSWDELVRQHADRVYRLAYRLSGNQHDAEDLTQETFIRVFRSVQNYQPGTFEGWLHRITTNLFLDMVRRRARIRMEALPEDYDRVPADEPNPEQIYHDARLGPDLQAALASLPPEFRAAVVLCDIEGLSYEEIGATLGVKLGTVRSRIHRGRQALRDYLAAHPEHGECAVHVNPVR

T13: ECF03_1198
T13 chain: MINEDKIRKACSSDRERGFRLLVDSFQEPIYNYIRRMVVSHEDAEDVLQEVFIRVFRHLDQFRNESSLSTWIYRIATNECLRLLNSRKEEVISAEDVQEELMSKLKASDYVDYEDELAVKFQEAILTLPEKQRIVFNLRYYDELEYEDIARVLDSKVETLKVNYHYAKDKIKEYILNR

B1: AS25_1645 (protein)
chain: MNESFSQRQTDGDRRRGGDLEMKKNHTSHQHHTDSETPMGHNFEQFQRLSAYFDGEATPAERKEIQHLLDTDPQVKQQYQQLRQLKQALQLLPIPTSISAQYLGQRVLARLRRSQLRTLSLWGSGAIAALFVAGVMGQMPRLNFDRFAKNDPDQQPTAALVETSPQGEEALVVALNRPVLQIPKLATTESP
B2: AS27_1331 (protein)
chain: MSAADKDPDKHSADADPPLTVELLADLQAGLLDDATAARIRSRVRSDPQAQQILRALNRVRRDVAAMGADPAWGPAARPAVVDSISAALRSARPNSSPGAAHAARPHVHPVRMIAGAAGLCAVATAIGVGAVVDAPPPAPSAPTTAQHITVSKPAPVIPLSRPQVLDLLHHTPDYGPPGGPLGDPSRRTSCLSGLGYPASTPVLGAQPIDIDARPAVLLVIPADTPDKLAVFAVAPHCSAADTGLLASTVVPRA
B3: AS33_375 (protein)
chain: MMALSKKMLEQEPSEIELLLPWHAAGTLNARDARRVEDALARDPELAKQYAAIRGEYEETIHLNESLGAPSARAMQKLFGAIDAEPARETGSLPLSARIATFFASLSPRTLAWSASLGAVALVLQAGIIGAVLMKTQPTTFQTASLSTSAPITRELGAAVAPARALVRFTPEARVADITALLDSYQASIIGDAKGGMFRLQFDKAMSQDELASLLGRMQREKFVNLAVAAP
B4: AS33_423 (protein)
chain: MMAMSNTMPDPREPGDVEALLPWYAAGTLNARDARRVADALDRDPALARQYAVILEEYASTIELNESLGAPSSRAMQKLFAAIDAEPARAPGAGQGLGARFAGFFAGLSPKALAWSASVAGLALLLQAGLIGALLTWPHAAPVQTAAYQPQREVARAPASSPAPATVSPPAAAMADRAADAGKSTPPMVMAERSGGPVVRSLAPQSGPRVLVKFAPEARASEIAALLDQYNAVVVDSSRGGLFRLQFGTQSLSKQDQETLIGRLQKEPVVSVVLSAP
B5: AS31_34 (protein)
chain: MNKEKLSDHLKSEWKKIDQTANPSIPNQKELLHQLSQMKAEYRKKLLQEIILFVFCALMVVSAAILAFTQAPAVFIVLQVCVLAVLPILIAAEKKRHLGECEVKRG
B6: AS30_35 (protein)
chain: MDKRLQQLREEYKNVQIPKELDIIVEKALQQEPKKKRIVMWPTSAAIAAAILFTALVNINPDAAQAMSKIPVIGKIVKAITFIEIKEEKDQSSIDVKTPALSGLSNKELENSINEKYLKESQQLYKEFIQSTSKNKKGHLSIYSDYETVTDTPDLLSIRRNIETTQASSYTQSRYITIDKKNDILLTLKSLFKDERYIKVISQNIKEQMKQQMKEDPNKIYWLTDEDAEPFKTILPDQTFYITEDHKLVISFDEYEVAPGYMGVTEFTIPTGVISNLLVGERYIR
B7: AS27_4265 (protein)
chain: MTGHPDVAEIADLAEGLLPTTRTTEVRQHLESCELCADVYASLTEIQGLLGTLPAPAPMPDDVAARIDAALAAEPPLGIADGTRVSRETSTPADRPAGHARPSSTGPGRKDRRRGGRRRIAVLGAVAAAAAIGIGSVVVSSLTEDSSSGNTAREQQTAIADTFSEGRLKDRVTNLVADGSAENGSRTPRSFGMESENGGETAENHVFKQPTVPECIRKGIGRDDAVIATEPGVYKGREALLVVLPDATNDTQVTAYIVETACVDQPAVGKAKILLEHSYARS

Molecular target: T1, ECF35_3582

Point of comparison: B6, fold repression 6.57. Against it:
- B1 — lower, 2.98
- B2 — lower, 5.79
- B3 — lower, 5.86
- B4 — lower, 6.37
- B5 — lower, 2.06
- B7 — lower, 1.97

Molecular target: T2, ECF34_1384

Point of comparison: B1, fold repression 7.62. Against it:
- B2 — lower, 2.35
- B3 — higher, 12.2
- B4 — higher, 8.97
- B5 — lower, 2.98
- B6 — lower, 2.04
- B7 — lower, 5.28

Molecular target: T3, ECF27_4265

Point of comparison: B2, fold repression 5.34. Against it:
- B1 — higher, 24.5
- B3 — the same, 5.34
- B4 — higher, 5.38
- B5 — lower, 1.48
- B6 — lower, 1.44
- B7 — higher, 152

Each binder was assayed against ECF27_1331.

Point of comparison: B2, fold repression 3.32. Against it:
- B1 — higher, 11.2
- B3 — higher, 11.4
- B4 — higher, 8.68
- B5 — lower, 2.57
- B6 — lower, 2.39
- B7 — higher, 3.78

Molecular target: T4, ECF38_1322

Point of comparison: B4, fold repression 5.66. Against it:
- B1 — lower, 3.98
- B2 — lower, 3.98
- B3 — higher, 7.66
- B5 — lower, 2.06
- B6 — lower, 1.84
- B7 — lower, 1.36

Molecular target: T5, ECF04_1609

Point of comparison: B1, fold repression 6.4. Against it:
- B2 — lower, 5.65
- B3 — higher, 11.1
- B4 — lower, 6.18
- B5 — lower, 2.79
- B6 — lower, 2.43
- B7 — lower, 2.44

Molecular target: T6, ECF37_2513

Point of comparison: B3, fold repression 13.5. Against it:
- B1 — lower, 7.52
- B2 — lower, 2.75
- B4 — lower, 10
- B5 — lower, 3.38
- B6 — lower, 2.3
- B7 — lower, 2.03

Molecular target: T7, ECF33_375

Point of comparison: B2, fold repression 4.75. Against it:
- B1 — lower, 3.29
- B3 — higher, 152
- B4 — higher, 114
- B5 — lower, 2.06
- B6 — lower, 1.3
- B7 — lower, 1.07

Molecular target: T8, ECF16_973

Point of comparison: B4, fold repression 14.6. Against it:
- B1 — lower, 5.41
- B2 — lower, 5.57
- B3 — lower, 9.87
- B5 — lower, 1.84
- B6 — lower, 1.73
- B7 — lower, 1.77

Molecular target: T9, ECF22_1147

Point of comparison: B3, fold repression 12.9. Against it:
- B1 — lower, 7.04
- B2 — lower, 2.2
- B4 — lower, 9.02
- B5 — lower, 3.62
- B6 — lower, 2.12
- B7 — lower, 8.51

Molecular target: T10, ECF03_1244

Point of comparison: B5, fold repression 2.34. Against it:
- B1 — higher, 4.7
- B2 — higher, 4.29
- B3 — higher, 16.3
- B4 — higher, 13.5
- B6 — lower, 1.74
- B7 — lower, 1.38

Molecular target: T11, ECF11_3726

Point of comparison: B2, fold repression 5.02. Against it:
- B1 — higher, 13.1
- B3 — higher, 34.4
- B4 — higher, 29.3
- B5 — higher, 5.86
- B6 — lower, 2.09
- B7 — higher, 7.03

Molecular target: T12, ECF14_3200

Point of comparison: B4, fold repression 12.2. Against it:
- B1 — higher, 14.2
- B2 — lower, 2.68
- B3 — higher, 17.8
- B5 — lower, 2.7
- B6 — lower, 1.91
- B7 — lower, 4.49

Molecular target: T13, ECF03_1198

Point of comparison: B3, fold repression 21.3. Against it:
- B1 — lower, 7.37
- B2 — lower, 3.98
- B4 — lower, 15
- B5 — lower, 2.96
- B6 — lower, 1.96
- B7 — lower, 2.19
